# In patent publication US20260144818A1, “ARMED CHIMERIC RECEPTORS AND METHODS OF USE THEREOF” (Senti Biosciences, Inc., priority 2022, published 2026):
# B1: IL7 with crIL15: CAR-NK cells co-expressing IL7 (SEQ ID NO: 394) with crIL15 (protein, UniProt P13232 26-177, looked up)
# Interleukin-7: DCDIEGKDGKQYESVLMVSIDQLLDSMKEIGSNCLNNEFNFFKRHICDANKEGMFLFRAARKLRQFLKMNSTGDFDLHLLKVSEGTTILLNCTGQVKGRKPAALGEAQPTKSLEENKSLKEQKKLNDLCFLKRLLQEIKTCWNKILMGTKEH
# System: tumor target cells that constitutively express a fluorescent reporter (mKate)
# Test: Serial killing screen of IL15 formats and combinations with IL21 or IL7
# Type: cell-based
# Experimental: 6 to 7 days after transduction, NK cells were collected, counted and seeded in a co-culture with tumor target cells that constitutively express a fluorescent reporter (mKate) at the appropriate effector to target (E:T) ratios. Tumor target cell growth (area) was quantified using an imaging-based system (Incucyte, Sartorius). After 48 to 72 hours of co-culture, new target cells were plated, and the NK cells were collected from the original plates and transferred to newly seeded targets for a 2nd or 3rd tumor re-challenge (serial killing). Target cell area was quantified and compared across different conditions. […] Similar serial target cell killing is shown at a different E:T ratio in FIG. 60E.
# Additionally, various constructions of a chimeric protein containing IL15 tethered to the IL15 receptor (FIG. 61A) was tested.
molecule,measurement,value
B1,serial target cell killing,no improvement in serial target cell killing
